# Test results reported in patent US11254722B2, “Recombinant proteins and uses thereof” (ACADEMIA SINICA, priority 2017, dated 2022).
# T1: VEGF (Homo sapiens, UniProt P15692)
# T1 construct: purchased R&D Systems
# T1 sequence (P15692 27-191 isoform P15692-4): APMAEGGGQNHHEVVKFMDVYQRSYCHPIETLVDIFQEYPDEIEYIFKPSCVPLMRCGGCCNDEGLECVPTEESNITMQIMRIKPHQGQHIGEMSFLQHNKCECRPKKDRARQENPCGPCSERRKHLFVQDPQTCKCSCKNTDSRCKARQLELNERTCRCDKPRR
# B1: h3t33fc: IGFBP3 with IGFBP3 linker deletion 1-Fc, SEQ ID NO: 8 (protein)
# chain: MSEVPVARVWLVLLLLTVQVGVTAGGASSAGLGPVVRCEPCDARALAQCAPPPAVCAELVREPGCGCCLTCALSEGQPCGIYTERCGSGLRCQPSPDEARPLQALLDGRGLCVNASAVSKGHAKDSQRYKVDYESQSTDTQNFSSESKRETEYGPCRREMEDTLNHLKFLNVLSPRGVHIPNCDKKGFYKKKQCRPSKGRKRGFCWCVDKYGQPLPGYTTKGKEDVHCYSMQSKVECPPCPAPPVAGPSVFLFPPKPKDQLMISRTPEVTCVVVDVSHEDPEVKFNWYVDGVEVHNAKTKPREEQYNSTYRVVSVLTVLHQDWLNGKEYKCKVSNKGLPSSIEKTISKAKGQPREPQVYTLPPSREEMTKNQVSLTCLVKGFYPSDIAVEWESNGQPENNYKTTPPVLDSDGSFFLYSKLTVDKSRWQQGNVFSCSVMHEGLHNHYTQKSLSLSPGK
# Tests used:
# cancer cells = experiment: In vitro proliferation of cancer cells stimulated by growth factors (Table 8); type: cell-based
# Experimental: (§1) For the proliferation assay, cells except for HUVEC were seeded at a density of 1,000 to 6,000 in 96 wells in an assay buffer of DMEM/F12 plus 0.2% BSA and 10 ug/ml transferrin. Chemical inhibitors were added after 16-20 hours after plating; IGF-1 or other growth factors or test chimeras in assay buffer were added at the time of plating or 16-20 hours after plating. 5,000 HUVEC ells were plated in poly-L-lysine coated 96 wells in M199 with 1%/FBS and HEPES. After 3 to 4 days of culture, growth was determined by incubating cells with Alamar blue for 4 to 6 hours and then the fluorescence (RFU) at 544/590 nm was read. For long term proliferation assays, cells were plated in the growth media with 5% or 10% FBS at densities of 500 to 10,000 cells per cm^2 growth area and grown for 7 to 21 days. Inhibitors and effectors were added 1-4 days after plating. Cells were exposed to cisplatin or gemcitabine for two days. Medium was renewed twice weekly. At completion, cells were fixed and then stained with Giemsa.
# (§2) The BP3-fc construct inhibited the proliferation of cancer cells that had been stimulated by IGF-1, IGF-2, neuregulin, HGF, and bFGF.
# fibroblasts = experiment: Proliferation induced by PDGF BB in fibroblasts (Table 8); type: cell-based
# Experimental: as §1, §2
# VEGF [1] = biological target: T1, VEGF; experiment: In vitro proliferation stimulated by VEGF (Table 8); type: cell-based
# Experimental: as §1
# The BP3-VEGF-trap-fc (including the IGFBP3 domains, the VEGFR1 domain 2 and VEGFR2 domain 3 (VEGF-trap (22)), and human immunoglobulin Fc region) broadened the binding to include VEGF-A, VEGF-B, and placental growth factor (PIGF). This BP3-VEGF-trap chimera could inhibit the proliferation stimulated by IGF-1, IGF-2, neuregulin, PDGF-BB, HGF, bFGF, VEGF-A, and PIGF (see, Table 8).
# TGF-α = biological target: T2, TGF-α (Homo sapiens, UniProt P01135); experiment: Biacore binding to TGF-α; conditions: Table 5
# T2 construct: purchased R&D Sciences or SinoBiologicals
# Experimental: (§3) Biacore binding was performed at David Myszka's laboratory at the University of Utah or at the Genomic Research Center at Academia Sinica. Surfaces of binding protein chimera were made via chemical immobilization on a CM4 chip using standard amine coupling chemistry. […] Excess surface carboxyl activated sites on all four flow cells was blocked using the doubly positively charged species ethylenediamine. Binding experiments (but not immobilizations) in HBS-P (10 mM HEPES pH 7.4, 150 mM NaCl, 0.05% P20), The HBS-P was supplemented with BSA at 0.2 mg/mL, or HBS-P was supplemented with 500 mM NaCl (650 mM NaCl, final concentration). Analytes were also reconstituted in the corresponding buffer. All experiments were performed at 25° C. 1/150 dilutions of phosphoric acid were used to regenerate IGFBP3-Fc surfaces and a sequence of 3 M MgCl2 followed by 5 M GuCl was used to regenerate surfaces immobilized with growth factor. Dissociation constants reported below used immobilized binding protein unless noted. Differences between binding constants may be expected between growth factor immobilization and chimera immobilization.
# HUVEC cells = experiment: HUVEC proliferation assay; type: cell-based
# Experimental: (§4) MCF-7 cells (a breast cancer cell line) were maintained in MEM (GIBCO) plus insulin and NEAA and 10% FBS (Hyclone).
# as §1
# Growth factor synergism can also be observed in the proliferation of HUVEC cells.
# VEGF [2] = biological target: T1, VEGF; experiment: Biacore binding to VEGF; conditions: Table 5; the kd is very low and difficult to measure
# Experimental: as §3
# hep3B cells = experiment: hep3B proliferation assay; type: cell-based, human
# In short: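 Cells seeded at 1,000 to 6,000 per well in DMEM/F12 with 0.2% BSA and 10 ug/ml transferrin. Inhibitors added 16-20 h after plating; IGF-1 or other growth factors at plating or 16-20 h later. After 3 to 4 days, growth read by Alamar blue fluorescence at 544/590 nm after 4 to 6 h.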
# [3] = test system: MCF-7 breast cancer cells; experiment: MCF-7 proliferation assay; type: cell-based; conditions: FIG. 5
# Experimental: as §4, §1
# We next examined the effect of 56662 (BP3/Fc) on the proliferation induced by growth factors that interacted with the IGFBP3. The proliferation of MCF-7 breast cancer cells was induced in serum-free medium by individual growth factors like IGF-1, IGF-2, EGF, TGF-a, Nrgbx, b-FGF, and amphiregulin (FIG. 1).
# T2 sequence (P01135 40-89 limits assumed): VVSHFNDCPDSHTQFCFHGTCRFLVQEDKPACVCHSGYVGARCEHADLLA
Molecule,inhibition of proliferation stimulated by HGF (cancer cells),inhibition of proliferation stimulated by IGF-1 (cancer cells),inhibition of proliferation stimulated by IGF-2 (cancer cells),inhibition of proliferation stimulated by bFGF (cancer cells),inhibition of proliferation stimulated by nrgbx (cancer cells),inhibition of proliferation stimulated by PDGF BB (fibroblasts),inhibition of proliferation stimulated by VEGF (VEGF [1]),"Dissociation Constants, TGF-α (TGF-α)","inhibition of VEGF-induced proliferation of HUVEC cells (HUVEC cells; FIG. 6, FIG. 13)","inhibition of HUVEC proliferation induced by IGF, bFGF, HGF or a combination (HUVEC cells; FIG. 13)","Dissociation Constants, VEGF (VEGF [2])","increase of inhibitory activity of erlotinib (hep3B cells; 100 nM chimera h3t33Fc, hep3B)","inhibition of hep3B cells treated with erlotinib (hep3B cells; combination with erlotinib, FIG. 15, FIG. 16A)","inhibition of IGF-1-induced proliferation of MCF-7, compared to 56662 and chimera B [3]"
VEGF-trap: the VEGFR1 domain 2 and VEGFR2 domain 3 (VEGF-trap (22)) [reference compound],no,no,no,no,no,no,inh,–,–,–,–,–,–,–
B1,–,–,–,–,–,–,–,no binding,did not inhibit,inhibited,no binding,about 100 fold,synergistically inhibited,a smaller EC50 and a higher maximal inhibition
